This is an account of results in PMC4961411.

Broadly, the stoichiometry N is a count of units in the complex or per binding partner.

The target of assay [1] is 6xHis-YlfB 131–405 (Legionella pneumophila). In words: SDS-PAGE and immunoblot of gel filtration peak fractions, boiled. A general note: In western blotting, separated proteins are transferred to a membrane and probed.
Assay [2] has the same target. Briefly: SDS-PAGE and immunoblot of gel filtration peak fractions, not boiled.
Assay [3] has as its target 6xHis-YlfA 128–425 (Legionella pneumophila). Briefly: SDS-PAGE and immunoblot of gel filtration peak fractions, boiled.
For assay [4] the target is unchanged. Briefly: SDS-PAGE and immunoblot of gel filtration peak fractions, not boiled.

Where “and” joins values, the source holds several entries; their conditions need not be identical. Equal values may be shown once.

Consider 6xHis-YlfB 131–405 (domain or fragment), for which the stoichiometry N in assay [1] is 2; in assay [2], 2 and 3.
As for 6xHis-YlfA 128–425 (domain or fragment), the stoichiometry N was 2 in assay [3]; 2 and 3 in assay [4].
